To fix the notation:
B1: HDV Ribozyme (parent)
chain: GGCCGGCAUGGUCCCAGCCUCCUCGCUGGCGCCGGCUGGGCAACAUUCCGAGGGGACCGUCCCCUCGGUAAUGGCGAAUGGGACCCA

In the data set the parent is B1. Kind of data set: self-cleavage, relative activity (ratio to wild type); higher = more cleavage; co-transcriptional.
In the case of GGCCGGCAUGGUCCCAGCCUCCUCGCUGGCUCCGGCUGGGCAACAUUCCGAGGGGACCGUCCCCUCGGUAAUUGCGAAUGGGACCCA, the self-cleavage worked out at 0.171.
With GGCCGGCAUGGUCCCAGCCUCCUCGCUGGCUCCGGCUGGGCAACAUUCCGAGGGGACCGUCCCCUCGGUAAUCGCGAAUGGGACCCA the figure was 0; with GGCCGGCAUGGUCCCAGCCUCCUCGCUGGCUCCGGCUGGGCAACAUUCCAAGGGGACCGUCCCCUCGGUAAUGGCGAAUGGGACCCA, 0.674; with GGCCGGCAUGGUCCCAGCCUCCUCGCUGGCUCCGGCUGGGCAACAUUCCGAGGGUACCGUCCCCUCGGUAAUGGCGAAUGGGACCCA, 0.324.
The value for GGCCGGCAUGGUCCCAGCCUCCUCGCUGGCUCCGGCUGGGCAACAUUCCGAGGGAACCGUCCCCUCGGUAAUGGCGAAUGGGACCCA was 0.506; that for GGCCGGCAUGGUCCCAGCCUCCUCGCUGGCUCCGGCUGUGCAACAUUCCGAGGGGACCGUCCCCUCGGUAAUGGCGAAUGGGACCCA was 0.285.
For the variant GGCCGGCAUGGUCCCAGCCUCCUCGCUGGCUCCGGGUGGGCAACAUUCCGAGGGGACCGUCCCCUCGGUAAUGGCGAAUGGGACCCA, the self-cleavage worked out at 0.0906.
With GGCCGGCAUGGUCCCAGCCUCCUCGCUGGCUCCGGAUGGGCAACAUUCCGAGGGGACCGUCCCCUCGGUAAUGGCGAAUGGGACCCA the figure was 0.106; with GGCCGGCAUGGUCCCAGCCUCCUCGCUGGCUCCGGCUGGCCAACAUUCCGAGGGGACCGUCCCCUCGGUAAUGGCGAAUGGGACCCA, 0.0519; with GGCCGGCAUGGUCCCAGCCUCCUCGCUGGCUCCGGCUGGGCAACAUUCCGAGGGGACCGUCCCUUCGGUAAUGGCGAAUGGGACCCA, 0.475.
The value for GGCCGGCAUGGUCCCAGCCUCCUCGCUGGCUCCGGCUGGGCAACAUUCCGAGGGGACCGUCCCGUCGGUAAUGGCGAAUGGGACCCA was 0.514; that for GGCCGGCAUGGUCCCAGCCUCCUCGCUGGCUCCGGCUGGGCAACAUUACGAGGGGACCGUCCCCUCGGUAAUGGCGAAUGGGACCCA was 0.401.
The value for GGCCGGCAUGGUCCCAGCCUCCUCGCUGGCUCCGGCUGGGCAACAUUCCGAGGCGACCGUCCCCUCGGUAAUGGCGAAUGGGACCCA was 0.197; that for GGCCGGCAUGGUCCCAGCCUCCUCGCUGGCUCCGGCUGGGCAACAUUCCGAGGUGACCGUCCCCUCGGUAAUGGCGAAUGGGACCCA was 0.369.
On to GGCCGGCAUGGUCCCAGCCUCCUCGCUGGCUCCGGCUGGGCAACAUUCCGAGGAGACCGUCCCCUCGGUAAUGGCGAAUGGGACCCA, for which the self-cleavage came out at 0.403.
Consider GGCCGGCAUGGUCCCAGCCUCCUCGCUGGCUCCGGCUGGGCAACAUUCCGAGAGGACCGUCCCCUCGGUAAUGGCGAAUGGGACCCA, for which the self-cleavage was found to be 0.289.
With GGCCGGCAUGGUCCCAGCCUCCUCGCUGGCUCCGGCUGGGCAACAUUCCGAGUGGACCGUCCCCUCGGUAAUGGCGAAUGGGACCCA the figure was 0.322; with GGCCGGCAUGGUCCCAGCCUCCUCGCUGGCUCCGGCUGGGCAAUAUUCCGAGGGGACCGUCCCCUCGGUAAUGGCGAAUGGGACCCA, 0.156; with GGCCGGCAUGGUCCCAGCCUCCUCGCUGGCUCCGGCUGGGCAAAAUUCCGAGGGGACCGUCCCCUCGGUAAUGGCGAAUGGGACCCA, 0.0707.
With GGCCGGCAUGGUCCCAGCCUCCUCGCUGGCUCCGGCUGGGCAACAUUCCGAGGGGACCGUCUCCUCGGUAAUGGCGAAUGGGACCCA the figure was 0.404; with GGCCGGCAUGGUCCCAGCCUCCUCGCUGGCUCCGGCUGGGCAACAUUCCGAGGGGACCGUCGCCUCGGUAAUGGCGAAUGGGACCCA, 0.19.
The value for GGCCGGCAUGGUCCCAGCCUCCUCGCUGGCUCCGGCUGGGCAACAUUCCGAGGGGACCGUCCCCUCGAUAAUGGCGAAUGGGACCCA was 0.38.
Consider GGCCGGCAUGGUCCCAGCCUCCUCGCUGGCUCCGGCUGGGCAACAUUCCGAGGGGACCGUCCCCUCGCUAAUGGCGAAUGGGACCCA, for which the self-cleavage came out at 0.344.
Turning to GGCCGGCAUGGUCCCAGCCUCCUCGCUGGCUCCGGCUGGGCAACAUUCCGAGGGGACCGUCCCCUCGUUAAUGGCGAAUGGGACCCA, the self-cleavage was 0.427.
The value for GGCCGGCAUGGUCCCAGCCUCCUCGCUGGCUCCGGCUGGGCAACAUUCCGAGGGGACCGUCCCCUCGGUAAUGGCGGAUGGGACCCA was 0.231; that for GGCCGGCAUGGUCCCAGCCUCCUCGCUGGCUCCGGCUGGGCAACAUUCCGAGGGGACCGUCCCCUCGGUAAUGGCGUAUGGGACCCA was 0.0665; that for GGCCGGCAUGGUCCCAGCCUCCUCGCUGGCUCCGGCUGGGCAACAUUCCGAGGGGACCGUCCCCUCGGUAAUGGCGAAUGGGGCCCA was 0.16.
Consider GGCCGGCAUGGUCCCAGCCUCCUCGCUGGCUCCGGCUGGGCAACAUUCCGAGGGGACCGUCCCCUCGGUAAUGGCGAAUGGGCCCCA, for which the self-cleavage came to 0.0898.
The value for GGCCGGCAUGGUCCCAGCCUCCUCGCUGGCUCCGGCUGGGCAACAUUCCGAGGGGACCGUCCCCUCGGUAAUGGCGAAUGGGUCCCA was 0.0627; that for GGCCGGCAUGGUCCCAGCCUCCUCGCUGGCUCCGGCUGGGCAACAUUCCGAGGGGACCGUCCCCUCGGUAAUGGCGAAUGGGACACA was 0.288.
The value for GGCCGGCAUGGUCCCAGCCUCCUCGCUGGCUCCGGCUGGGCAACAUUCCGAGGGGACCGUCCCCUCGGUAAUGGCGAAUGGGACUCA was 0.441.
With GGCCGGCAUGGUCCCAGCCUCCUCGCUGGCUCCGGCUGGGCAACAUUCCGAGGGGACCGUCCCCUCGGUAUUGGCGAAUGGGACCCA the figure was 0.181.

(Values after the RNAGym collection of RNA variant scans (doi:10.7554/elife.80360).)
